Laboratory results taken from PMC6692406, “Optimization of a reduced enzymatic reaction cascade for the production of L-alanine” (Scientific Reports, 2019).
One block for each molecule: values may come before it.

Experiments:
[1] = biological target: T1, CcDHAD (dihydroxyacid dehydratase) (Caulobacter vibrioides, UniProt Q9A9Z2); experiment: inhibition of D-gluconate dehydration (experimental analysis in Figure S2); assay type: biochemical
T1 construct: gene xylD; codon-optimised gene in pET28a, recombinant in E. coli BL21(DE3), purified on His GraviTrap; MnCl2 added before freezing
T1 sequence (Q9A9Z2 1-595): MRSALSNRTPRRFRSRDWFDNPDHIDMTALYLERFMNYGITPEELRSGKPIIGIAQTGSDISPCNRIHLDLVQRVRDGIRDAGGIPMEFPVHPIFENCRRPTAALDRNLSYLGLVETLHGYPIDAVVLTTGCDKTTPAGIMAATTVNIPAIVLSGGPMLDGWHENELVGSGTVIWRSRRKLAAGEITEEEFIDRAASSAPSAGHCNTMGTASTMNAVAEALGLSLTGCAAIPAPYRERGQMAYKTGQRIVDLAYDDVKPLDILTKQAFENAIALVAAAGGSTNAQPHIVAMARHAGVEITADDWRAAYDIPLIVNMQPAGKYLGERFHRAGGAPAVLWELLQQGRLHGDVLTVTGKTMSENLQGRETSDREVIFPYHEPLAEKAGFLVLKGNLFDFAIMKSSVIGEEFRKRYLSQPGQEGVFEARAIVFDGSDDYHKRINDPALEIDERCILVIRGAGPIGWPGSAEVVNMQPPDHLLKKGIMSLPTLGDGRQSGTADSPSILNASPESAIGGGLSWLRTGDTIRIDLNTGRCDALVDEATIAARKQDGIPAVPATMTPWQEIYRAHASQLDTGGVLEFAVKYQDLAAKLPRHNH

[2] = substrate: O=C(O)C(=O)C[C@H](O)[C@H](O)CO; experiment: purified protein; assay type: biochemical, Picrophilus oshimae; conditions: 0.03-3 mM KDG, 1 mM NAD, 50 °C, 100 mM HEPES pH 7.35, 100 mM ammonium sulfate
[3] = substrate: O=C(O)[C@H](O)[C@@H](O)[C@H](O)[C@H](O)CO; experiment: purified protein; assay type: biochemical, Caulobacter vibrioides; conditions: 0.2-20 mM D-gluconate, 1 mM NAD, 50 °C, 100 mM HEPES pH 7.35, 100 mM ammonium sulfate, enzyme stored with MnCl2
[4] = substrate: CC(=O)C(=O)O; experiment: purified protein; assay type: biochemical, Archaeoglobus fulgidus; conditions: 0.1-1 mM pyruvate, 0.2 mM NADH, 100 mM (NH4)2SO4, 50 °C, 100 mM HEPES pH 7.35
[5] = substrate: NC(=O)C1=CN([C@@H]2O[C@H](COP(=O)(O)OP(=O)(O)OC[C@H]3O[C@@H](n4cnc5c(N)ncnc54)[C@H](O)[C@@H]3O)[C@@H](O)[C@H]2O)C=CC1; experiment: purified protein; assay type: biochemical, Archaeoglobus fulgidus; conditions: 0.005-0.3 mM NADH, 1 mM pyruvate, 100 mM (NH4)2SO4, 50 °C, 100 mM HEPES pH 7.35, varied: cofactor
[6] = substrate: O=C[C@H](O)CO; experiment: purified protein; conditions: substrate not named in table (D-glyceraldehyde from the cascade), cofactor NAD, 50 °C, 100 mM HEPES pH 7.35, 100 mM ammonium sulfate
[7] = substrate: NC(=O)c1ccc[n+]([C@@H]2O[C@H](COP(=O)(O)OP(=O)(O)OC[C@H]3O[C@@H](n4cnc5c(N)ncnc54)[C@H](O)[C@@H]3O)[C@@H](O)[C@H]2O)c1; experiment: purified protein; assay type: biochemical, Methanocaldococcus jannaschii; conditions: 50 °C, 100 mM HEPES pH 7.35, 100 mM ammonium sulfate, varied: cofactor

- Ki [1]: ~500 µM
Molecule: O=C(O)[C@H](O)CO [D-glycerate]

B1: PtKDGA (2-keto-3-deoxygluconate aldolase) (Picrophilus oshimae DSM 9789) (protein)
chain: MITPLDAHGNIDYNATNILIKYLEGINVDYLFPMGSTGVFPYFTLKERKDFLKFVRENSKKPIMAGVGSSSINEVNELMKFSMDIGIEAAVLMPPYYIKLNQEAIYHYYKEILSSNDMDLLIYNIPQFTNKIDPETVKNLKSEFSSVKGVKDSSADIRGFMEMLSLSDDDFAVFQGQDDLLFTSLELGASGGVCGTTNFSDGIVRLYHEYKNNREMALKIEKNDVIPLMKKLGKYQFPNAYYEYFYKKNNINGGYRPPMYRVGIEI
notes: codon-optimised gene in pET28a, recombinant in E. coli BL21(DE3), heat treated (65 °C) and purified on His GraviTrap
- Km [2]: 1100 µM

B2: CcDHAD (dihydroxyacid dehydratase) (Caulobacter vibrioides CB15) (protein)
chain: T1 sequence (Q9A9Z2 1-595)
notes: codon-optimised gene in pET28a, recombinant in E. coli BL21(DE3), purified on His GraviTrap; MnCl2 added before freezing
- Km [3]: 3200 µM

B3: AfAlaDH (L-alanine dehydrogenase) (Archaeoglobus fulgidus DSM 4304) (protein)
chain: METLILTQEEVESLISMDEAMNAVEEAFRLYALGKAQMPPKVYLEFEKGDLRAMPAHLMGYAGLKWVNSHPGNPDKGLPTVMALMILNSPETGFPLAVMDATYTTSLRTGAAGGIAAKYLARKNSSVFGFIGCGTQAYFQLEALRRVFDIGEVKAYDVREKAAKKFVSYCEDRGISASVQPAEEASRCDVLVTTTPSRKPVVKAEWVEEGTHINAIGADGPGKQELDVEILKKAKIVVDDLEQAKHGGEINVAVSKGVIGVEDVHATIGEVIAGLKDGRESDEEITIFDSTGLAIQDVAVAKVVYENALSKNVGSKIKFFRI
notes: codon-optimised gene in pET24a, recombinant in E. coli BL21(DE3), purified by heat treatment (70 °C) and desalting
- Km [4]: 200 µM
- Km [5]: 60 µM

B4: MjALDH (aldehyde dehydrogenase) (Methanocaldococcus jannaschii DSM 2661) (protein)
chain: MFIDGKWINREDMDVINPYSLEVIKKIPALSREEAKEAIDTAEKYKEVMKNLPITKRYNILMNIAKQIKEKKEELAKILAIDAGKPIKQARVEVERSIGTFKLAAFYVKEHRDEVIPSDDRLIFTRREPVGIVGAITPFNFPLNLSAHKIAPAIATGNVIVHHPSSKAPLVCIELAKIIENALKKYNVPLGVYNLLTGAGEVVGDEIVVNEKVNMISFTGSSKVGELITKKAGFKKIALELGGVNPNIVLKDADLNKAVNALIKGSFIYAGQVCISVGMILVDESIADKFIEMFVNKAKVLNVGNPLDEKTDVGPLISVEHAEWVEKVVEKAIDEGGKLLLGGKRDKALFYPTILEVDRDNILCKTETFAPVIPIIRTNEEEMIDIANSTEYGLHSAIFTNDINKSLKFAENLEFGGVVINDSSLFRQDNMPFGGVKKSGLGREGVKYAMEEMSNIKTIIISK
notes: codon-optimised gene in pET28a (NcoI/XhoI), recombinant in E. coli BL21(DE3), purified by heat treatment (70 °C) and desalting
- Km [6]: 300 µM
- Km [7]: 300 µM
